Test results: US9739733B2, “Methods for monitoring tight clot formation” (T2 Biosystems, Inc., priority 2012, dated 2017)

Experiments:
[1] = tested on: platelet activity in whole blood; experiment: T2 relaxation spectra / 3D plots of clotting whole blood spiked with abciximab; assay type: cell-based, human
Method: T2 relaxation rate data was collected from CK blood samples drawn from healthy patients. For each sample, a series of T2 decay curves were measured over a period of 50 minutes. The decay curves were each processed using an Inverse Laplace Transform (ILT CONTIN) to provide an array of curves showing T2 intensity as a function of T2 time. […] FIG. 20 illustrates the 3D data sets for patient samples 29328 and 29350 collected on a Bruker minispec. […] At a time between 5 minutes and 30 minutes, the single water population diverged into two significant water populations. These two water populations correspond to the two components of the clot, i.e., the retracted clot and the serum surrounding the retracted clot. […] For some samples these two peaks were not entirely resolved. The correlation between the water populations and the components of the clotted sample was confirmed by separating the retracted clot from the surrounding serum and separately measuring the T2 data for these two components.
In a first experiment, four aliquots of patient sample 29488 were prepared with different concentrations of abciximab (0, 2, 4, and 8 μg/mL) prior to initiation of the clotting process. The T2 relaxation times for the four samples were measuring over the course of clot formation and the corresponding 3D plots were determined using the technique described in Example 13. […] This physical change is evidenced and quantified in the corresponding 3D plots (FIG. 21), showing fast exchange of water within the uniform sample at the highest concentration of abciximab.
In a second experiment, five aliquots of patient sample 29494 were prepared with different concentrations (0, 2, 4, 8, and 0 μg/mL) of abciximab prior to initiation of the clotting process. The T2 relaxations times for the samples were measured in series, with each set of measurements lasting approximately 50 min. […] The corresponding TEG-determined MA values for these samples was 60.7, 61.4, 30.4, and 22.0, respectively.

[2] = tested on: IIb/IIIa receptor of human platelets; experiment: TEG clot strength (MA) of whole blood spiked with abciximab; assay type: cell-based; details: patient sample 29494
Method: The clotting of a whole blood sample was perturbed using the antithrombotic agent abciximab (ReoPro®). Abciximab is the Fab fragment of a human-murine monoclonal antibody that binds to the IIb/IIIa receptor of human platelets and inhibits platelet aggregation. Abciximab serves to inhibit the retraction of a clot during the clotting process.
Samples containing abciximab were prepared according to the following procedure and referenced in the application and Figures by a number corresponding to the concentration of abciximab in units of μg/mL.
1. Blood was drawn from normal donors into six citrate tubes. Normal donors must not have taken aspirin or any anti-platelet drug in the past two weeks.
2. The six tubes of blood were pooled and mixed gently by inversion eight to ten times. Samples were used within two hours of collection.
3. A abciximab solution (10 mg/5 mL) was diluted at a ratio of 1:4 using saline as a diluent to form “solution 1.”
4. The blood was spiked with solution 1 and saline according to Table 5
5. The samples were allowed to sit for at least five minutes prior to running any sample in a T2reader or Bruker minispec.
In a second experiment, five aliquots of patient sample 29494 were prepared with different concentrations (0, 2, 4, 8, and 0 μg/mL) of abciximab prior to initiation of the clotting process. The T2 relaxations times for the samples were measured in series, with each set of measurements lasting approximately 50 min. The first sample tested and the final sample tested contained no added abciximab. The collected T2 decay curves were processed using Inverse Laplace Transforms, as described in Example 18. […] The difference in the curve shape between the first sample run and the final sample run, both of which contained no added abciximab, may be evidence of an effect of sample age on the T2 time distribution. The corresponding TEG-determined MA values for these samples was 60.7, 61.4, 30.4, and 22.0, respectively.

whole blood clot [3] = experiment: T2Coagulation / TEG LY30 fibrinolysis in healthy patient blood; assay type: cell-based, human; details: kaolin runs
Method: Five different healthy patient samples were used to test whether T2Coagulation was sensitive to fibrinolysis. Addition of tissue plasminogen activator (TPA) was used to simulate fibrinolysis by adding it at two levels to healthy patient blood. TPA cleaves fibrin as it forms. It was observed that fibrinolysis can be detected within 10 minutes on T2Coagulation, which is less than half the time required for detection on TEG. For all five patients there was a clear difference between healthy and fibrinolytic samples.
There are several potential features that can be used for this correlation. Three that were investigated were the difference between (i) the minimum and maximum T2B values (FIG. 13), (ii) the average of the T2B values over the final 25 minutes of the T2B curves, and (iii) the T2B values at 10 minutes. All had correlations with R^2 values between 0.72 and 0.79. The correlation plots show a higher sensitivity of T2Coagulation for fibrinolysis than TEG. This can be seen by the groupings for the different levels of fibrinolysis in FIG. 13. The healthy patient samples are circled with the solid line. […] The T2Coagulation T2B term can be detected in as little as 10 minutes, which is much faster than the TEG LY30 term can be detected, indicating the utility of the T2Coagulation signal for more rapid measurement of fibrinolysis.

whole blood clot [4] = experiment: T2MR whole blood fibrinolysis with spiked TPA; assay type: cell-based, human; details: 100 U/mL TPA, blood from a healthy donor
Method: The T2MR surface is also sensitive to whole blood fibrinolysis. To assess this, healthy donor samples were spiked with tissue plasminogen activator (TPA).
TPA was added at 100 U/mL to blood from a healthy donor. In the absence of TPA (see FIG. 27a) two stable peaks form at the expected clotting time. […] Both the instability and the distance between the final T2 peaks indicate sensitivity to fibrinolysis induced by the presence of TPA.
The T2MR effect on fibrinolysis was expressed in AU values (arbitrary units; see FIG. 27c) obtained by calculating the difference between the maximum and minimum T2 value observed for the clot signal (or T2B) in the T2 time curve.
Fibrinolysis was monitored by T2 magnetic resonance (T2MR) in five patient blood samples with and without the addition of TPA (100 U/mL) (FIG. 27c). […] All other samples required addition of TPA to induce fibrinolysis, as confirmed by the reference method.

B1: abciximab (antibody, chains of the INN, looked up, V domains shown)
VH: EVQLQQSGTVLARPGASVKMSCEASGYTFTNYWMHWVKQRPGQGLEWIGAIYPGNSDTSYIQKFKGKAKLTAVTSTTSVYMELSSLTNEDSAVYYCTLYDGYYVFAYWGQGTLVTVSA
VL: EIVLTQSPVTLSVTPGDSVSLSCRASRDISNNLHWFQQTSHESPRLLIKYASQSMSGIPSRFSGSGSGTDFTLSINSVETEDFGMYFCQQTNSWPYTFGGGTKLEIK
modifications: Fab
clot associated and serum associated T2 signal ([1]; 8 μg/mL Reopro®, T2reader): reduces the signal intensity of the clot associated signal and shifts the serum associated signal to lower T2 values
distribution of T2 signals within the initial water population ([1]; at 0.1 minutes, abciximab 2, 4, 8 μg/mL, patient sample 29494): narrower distribution of T2 signals
retracted clot and serum water populations in 3D plot ([1]; highest concentration of abciximab (8 μg/mL), patient sample 29488): no longer two phases visible within the clot
TEG-determined MA ([2]; abciximab 2 μg/mL): 61.4
TEG-determined MA ([2]; abciximab 4 μg/mL): 30.4
TEG-determined MA ([2]; abciximab 8 μg/mL): 22.0

B2: Cathflo®: recombinant alteplase manufactured by Genentech (protein, UniProt P00750 36-562, looked up)
Tissue-type plasminogen …: SYQVICRDEKTQMIYQQHQSWLRPVLRSNRVEYCWCNSGRAQCHSVPVKSCSEPRCFNGGTCQQALYFSDFVCQCPEGFAGKCCEIDTRATCYEDQGISYRGTWSTAESGAECTNWNSSALAQKPYSGRRPDAIRLGLGNHNYCRNPDRDSKPWCYVFKAGKYSSEFCSTPACSEGNSDCYFGNGSAYRGTHSLTESGASCLPWNSMILIGKVYTAQNPSAQALGLGKHNYCRNPDGDAKPWCHVLKNRRLTWEYCDVPSCSTCGLRQYSQPQFRIKGGLFADIASHPWQAAIFAKHRRSPGERFLCGGILISSCWILSAAHCFQERFPPHHLTVILGRTYRVVPGEEEQKFEVEKYIVHKEFDDDTYDNDIALLQLKSDSSRCAQESSVVRTVCLPPADLQLPDWTECELSGYGKHEALSPFYSERLKEAHVRLYPSSRCTSQHLLNRTVTDNMLCAGDTRSGGPQANLHDACQGDSGGPLVCLNDGRMTLVGIISWGLGCGQKDVPGVYTKVTNYLDWIRDNMRP
modifications: alteplase
notes: recombinant alteplase manufactured by Genentech
degree of fibrinolysis (whole blood clot [3]; 60 ng/mL): partially fibrinolytic
degree of fibrinolysis (whole blood clot [3]; 118 ng/mL): fully fibrinolytic

B3: TPA: tissue plasminogen activator (protein, UniProt P00750 36-562, looked up)
Tissue-type plasminogen …: B2 Tissue-type plasminogen …
clot stability (T2MR peaks) (whole blood clot [4]): unstable after 20-30 minutes
